Biological target: caleosin 2 (CLO2), Cub fusion (A. thaliana, UniProt Q9FLN9 1-243)
Assay: two-hybrid

Sequence of caleosin 2 (CLO2), Cub fusion (Q9FLN9 whole entry, the tested form may be a part): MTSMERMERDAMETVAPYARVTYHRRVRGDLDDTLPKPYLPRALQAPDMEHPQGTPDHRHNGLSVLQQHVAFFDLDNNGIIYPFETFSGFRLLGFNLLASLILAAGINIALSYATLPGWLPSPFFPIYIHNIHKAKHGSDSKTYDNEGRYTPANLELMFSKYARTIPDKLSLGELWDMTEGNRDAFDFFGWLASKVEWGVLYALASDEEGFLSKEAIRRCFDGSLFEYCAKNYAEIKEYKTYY

B1: autophagy-related protein 8b (ATG8b), NubG fusion (natural protein, A. thaliana, UniProt Q9XEB5 1-117, looked up)
chain: MEKNSFKLSNPLEMRMAESTRIRAKYPERVPVIVEKAGQSDVPDIDKKKYLVPADLTIGQFVYVVRKRIKLGAEKAIFVFVKNTLPPTAALMSAIYEEHKDEDGFLYMTYSGENTFG
In the case of B1, the “fold weaker β-galactosidase activity (against CLO1, CLO3 and OLE1)” value is reported as 2 fold.
